Laboratory results taken from PMC7865074.

Target: full-length (FL) NS5 protein (wt PBM) of West Nile virus (West Nile virus)
Experiment: split reporter (BiFC, NanoBiT); N2H split-NanoLuc in HEK-293T cells; full-length NS5 with 91 full-length human PDZ proteins (ORFs); read-out NLR; hits NLR > 1.35

Connector enhancer of kinase suppressor of ras 3, full-length protein (ORF, N2H construct), sequence (Q6P9H4 whole entry): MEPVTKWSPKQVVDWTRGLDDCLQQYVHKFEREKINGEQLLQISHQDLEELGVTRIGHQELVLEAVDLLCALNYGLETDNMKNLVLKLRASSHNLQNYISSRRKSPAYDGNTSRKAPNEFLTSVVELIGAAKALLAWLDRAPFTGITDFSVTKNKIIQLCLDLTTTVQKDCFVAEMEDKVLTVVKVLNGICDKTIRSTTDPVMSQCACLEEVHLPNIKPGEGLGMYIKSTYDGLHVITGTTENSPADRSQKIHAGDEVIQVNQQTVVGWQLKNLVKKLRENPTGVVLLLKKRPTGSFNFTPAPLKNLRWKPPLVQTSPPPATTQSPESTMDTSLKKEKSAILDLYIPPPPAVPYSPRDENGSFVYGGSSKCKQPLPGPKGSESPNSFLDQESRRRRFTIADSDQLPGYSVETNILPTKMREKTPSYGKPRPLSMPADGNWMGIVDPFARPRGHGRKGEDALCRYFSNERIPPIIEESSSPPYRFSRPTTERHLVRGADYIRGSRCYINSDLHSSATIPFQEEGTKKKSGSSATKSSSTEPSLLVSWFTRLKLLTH
Protein scribble homolog, PDZ domain 1 (N2H construct), sequence (Q14160 728-815): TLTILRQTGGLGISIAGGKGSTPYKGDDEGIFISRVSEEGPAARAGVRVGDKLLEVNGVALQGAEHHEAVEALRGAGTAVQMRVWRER
Microtubule-associated serine/threonine-protein kinase 2, PDZ domain (N2H construct), sequence (Q6P0Q8 1104-1192): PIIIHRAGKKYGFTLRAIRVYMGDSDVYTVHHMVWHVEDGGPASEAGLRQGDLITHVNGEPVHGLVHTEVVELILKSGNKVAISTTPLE
Serine protease HTRA1, PDZ domain (N2H construct), sequence (Q92743 365-467): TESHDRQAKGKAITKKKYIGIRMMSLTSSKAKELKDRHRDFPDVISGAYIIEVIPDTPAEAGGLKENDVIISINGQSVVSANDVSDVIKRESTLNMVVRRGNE
Partitioning defective 3 homolog, PDZ domain 1 (N2H construct), sequence (Q8TEW0 271-359): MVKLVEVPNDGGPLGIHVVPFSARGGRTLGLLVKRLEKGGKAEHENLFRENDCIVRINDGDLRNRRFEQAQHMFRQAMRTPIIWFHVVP
FERM and PDZ domain-containing protein 4, PDZ domain (N2H construct), sequence (Q14CM0 78-155): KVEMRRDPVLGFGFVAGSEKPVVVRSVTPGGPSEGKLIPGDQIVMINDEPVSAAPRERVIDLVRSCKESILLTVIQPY
Protein scribble homolog, PDZ domain 4 (N2H construct), sequence (Q14160 1100-1194): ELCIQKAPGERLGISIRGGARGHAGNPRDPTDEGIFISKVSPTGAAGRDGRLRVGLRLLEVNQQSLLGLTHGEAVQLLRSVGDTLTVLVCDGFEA
Connector enhancer of kinase suppressor of ras 3, PDZ domain (N2H construct), sequence (Q6P9H4 211-293): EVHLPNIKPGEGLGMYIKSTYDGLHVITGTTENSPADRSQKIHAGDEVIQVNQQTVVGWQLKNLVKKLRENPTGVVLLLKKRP
Microtubule-associated serine/threonine-protein kinase 1, PDZ domain (N2H construct), sequence (Q9Y2H9 967-1055): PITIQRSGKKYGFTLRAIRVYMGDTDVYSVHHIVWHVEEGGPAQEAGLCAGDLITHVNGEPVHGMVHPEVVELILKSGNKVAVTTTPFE

| Substance | NLR |
| --- | --- |
| SH3 and multiple ankyrin repeat domains protein 2, full-length protein (ORF, N2H construct) (from UniProt Q9UPX8 1-1849) (natural protein) | 4.38 |
| Connector enhancer of kinase suppressor of ras 3, full-length protein (ORF, N2H construct) (from UniProt Q6P9H4 1-555) (natural protein) | 1.91 |
| Rho GTPase-activating protein 21, full-length protein (ORF, N2H construct) (from UniProt Q5T5U3 1-1958) (natural protein) | 4.4 |

Target: full-length (FL) NS5 protein (wt PBM) of West Nile virus (West Nile virus)
Experiment: as above
Remark: another data set of the same source

| Substance | NLR |
| --- | --- |
| Rho GTPase-activating protein 21, full-length protein (ORF, N2H construct) (from UniProt Q5T5U3 1-1958) (natural protein) | 4.41 |

Target: full-length (FL) NS5 protein (wt PBM) of West Nile virus (West Nile virus)
Experiment: split reporter (BiFC, NanoBiT); N2H split-NanoLuc in HEK-293T cells; full-length NS5 with 257 single PDZ domains; read-out NLR with NS5 minus NLR with NS5ΔPBM, three experiments; hits > 0.25

| Substance | NLR(NS5) - NLR(NS5ΔPBM) |
| --- | --- |
| FERM and PDZ domain-containing protein 4, PDZ domain (N2H construct) (from UniProt Q14CM0 78-155) (domain or fragment) | < 0.25 |
| Partitioning defective 3 homolog, PDZ domain 1 (N2H construct) (from UniProt Q8TEW0 271-359) (domain or fragment) | 1.24 |
| Microtubule-associated serine/threonine-protein kinase 2, PDZ domain (N2H construct) (from UniProt Q6P0Q8 1104-1192) (domain or fragment) | 0.87 |
| Connector enhancer of kinase suppressor of ras 3, PDZ domain (N2H construct) (from UniProt Q6P9H4 211-293) (domain or fragment) | 6.27 |
| Protein scribble homolog, PDZ domain 1 (N2H construct) (from UniProt Q14160 728-815) (domain or fragment) | 0.76 |
| Protein scribble homolog, PDZ domain 4 (N2H construct) (from UniProt Q14160 1100-1194) (domain or fragment) | 0.56 |
| Microtubule-associated serine/threonine-protein kinase 1, PDZ domain (N2H construct) (from UniProt Q9Y2H9 967-1055) (domain or fragment) | < 0.25 |
| Serine protease HTRA1, PDZ domain (N2H construct) (from UniProt Q92743 365-467) (domain or fragment) | < 0.25 |
| Golgi reassembly-stacking protein 2, PDZ domain (N2H construct) (domain or fragment) | 1.32 |

Target: biotinylated WNV NS5 PBM peptide (West Nile virus)
Experiment: holdup assay (automated high-throughput chromatography); biotinylated NS5 PBM peptide as bait against 259 human PDZ domains expressed in E. coli; read-out binding intensity (BI), mean of replicates; BI threshold 0.2 for a significant interaction

| Substance | BI (holdup binding intensity) |
| --- | --- |
| Golgi reassembly-stacking protein 2, PDZ domain (holdup construct) (domain or fragment) | < 0.15 |
